Assay results published in PMC5207143.
Blank lines part the entries; values can stand above or below the binder they belong to.

Legend:
[1] = target: FcγRIIB on Raji cells (human (endogenous in Raji)) (UniProt P31994)
[2] = target: human FcγRIIA receptor, Arg131 allotype (on transfected Expi293F cells) (human); test: flow cytometry on cells; Expi293F cells transiently transfected with a human Fcγ receptor, 48 h after transfection; 1 to 10000 ng/ml test antibody, 1.5 h at 4 °C; R-phycoerythrin anti-human IgG secondary antibody; EC50 by nonlinear regression of mean fluorescence
[3] = target: human FcγRIIB receptor (on transfected Expi293F cells) (human) (UniProt P31994); test: as above
[4] = target: OX40SF2IgG1E345R/E430G/S440Y (human); test: SEC-MALS; purified antibody in solution; monomeric peak and a ∼900 kDa peak

human FcγRIIA receptor, Arg131 allotype (on transfected Expi293F cells) (human), sequence (P12318 other isoform, or with tags, fused parts or gaps): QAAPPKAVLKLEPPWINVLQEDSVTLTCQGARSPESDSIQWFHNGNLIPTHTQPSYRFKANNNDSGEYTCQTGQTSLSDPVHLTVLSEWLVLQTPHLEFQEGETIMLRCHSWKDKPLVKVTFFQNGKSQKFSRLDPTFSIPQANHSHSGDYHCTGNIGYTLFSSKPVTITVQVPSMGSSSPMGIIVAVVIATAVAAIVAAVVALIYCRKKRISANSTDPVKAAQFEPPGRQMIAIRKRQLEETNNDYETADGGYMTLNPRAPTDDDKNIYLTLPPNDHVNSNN

agonism in the HEK-Blue NF-κB reporter assay, HEK-Blue:OX40 cells co-cultured with Raji cells, 10 to 1000 ng/ml antibody; decreased when Raji cells were pre-blocked with 5 μg/ml 2B6 [1]: > 2 fold | EC50 [2]: 1.5 nM | fold more potent EC50 than OX40SF2IgG1 [2]: 20 fold | EC50 [3]: 3.1 nM
B1: OX40SF2IgG1S267E/L328F (antibody, V domains shown)
VH: QVQLVQSGAEVKKPGSSVKVSCKASGYTFKDYTMHWVRQAPGQGLEWIGGIYPNNGGSTYNQNFKDRVTLTADKSTSTAYMELSSLRSEDTAVYYCARMGYHGPHLDFDVWGQGTTVTVSS
VL: DIQMTQSPSSLSASVGDRVTITCKASQDVGAAVAWYQQKPGKAPKLLIYWASTRHTGVPSRFSGSGSGTDFTLTISSLQPEDFATYYCQQYINYPLTFGGGTKVEIK

stoichiometry N [4]: 6
B2: OX40SF2IgG1E345R/E430G/S440Y (antibody, V domains shown)
VH: B1 VH
VL: B1 VL
